# According to paper PMC7137382, “Structure of the Mycobacterium smegmatis α-maltose-1-phosphate synthase GlgM” (Acta Crystallographica. Section F, Structural Biology …, 2020):
# Molecular target: the molecule itself
# Assay: SEC; Superdex 200 10/300 GL, 50 mM bis-Tris pH 6.0, 5 mM MgCl2, 100 mM NaCl
protein,measurement,value
"α-maltose-1-phosphate synthase GlgM from Mycobacterium smegmatis (enzyme, Mycobacterium smegmatis mc2155, GlgM (glgM gene, MSMEG_5080) from M. smegmatis mc2155, synthesised with codon usage for E. coli; A TEV cleavage site lies between the N-terminal 6×His tag and the protein; also called M. smegmatis GlgM; source: E. coli BL21 Star, purified (HisTrap FF, imidazole gradient); not shown: 6×His, N-terminal, kept) MRVAMMTREYPPEVYGGAGVHVTELVAQLRKLCDVDVHCMGAPRDGAYVAHPDPTLRGANAALTMLSADLNMVNNAEAATVVHSHTWYTGLAGHLASLLYGVPHVLTAHSLEPLRPWKAEQLGGGYQVSSWVERTAVEAADAVIAVSSGMRDDVLRTYPALDPDRVHVVRNGIDTTVWYPAEPGPDESVLAELGVDLNRPIVAFVGRITRQKGVAHLVAAAHRFAPDVQLVLCAGAPDTPQIAEEVSSAVQQLAQARTGVFWVREMLPTHKIREILSAATVFVCPSVYEPLGIVNLEAMACATAVVASDVGGIPEVVADGRTGLLVHYDANDTEAYEARLAEAVNSLVADPDRAREYGVAGRERCIEEFSWAHIAEQTLEIYRKVSA",stoichiometry N,2
